The target of test [1] is T1, human IL-1R1 (human, UniProt P14778 18-336, limits assumed).
T1 construct: also called IL-1RI
T1 sequence (looked up): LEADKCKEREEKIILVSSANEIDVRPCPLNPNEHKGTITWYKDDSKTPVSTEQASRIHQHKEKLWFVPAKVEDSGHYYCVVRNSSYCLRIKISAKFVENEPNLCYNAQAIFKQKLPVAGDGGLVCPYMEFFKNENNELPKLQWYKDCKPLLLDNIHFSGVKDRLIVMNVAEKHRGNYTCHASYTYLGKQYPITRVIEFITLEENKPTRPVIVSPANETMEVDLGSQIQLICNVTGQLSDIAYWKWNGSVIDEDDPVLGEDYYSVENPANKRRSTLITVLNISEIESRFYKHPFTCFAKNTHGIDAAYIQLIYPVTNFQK
Put plainly: BLI (Fortebio Octet), antibody injected over antigen surface. The protocol:
(§1) B) Molecular selectivity over mouse IL-36R and human IL-1R1 The mouse and chimeric anti-IL-36R antibodies were also injected over either a mouse IL-36R or a human IL-1R1 surface at a concentration of 100 nM. The binding signal to mouse IL-36R and to human IL-1R1 for these antibodies measured using the Fortebio Octet (Fortebio, Menlo Park, Calif.) is zero, which indicates these antibodies selectively bind to human IL-36R.
(In general: In BLI a coated tip is dipped into the sample, and binding shifts an interference pattern.)

Test [2] addresses T2, mouse IL-36R (mouse, UniProt Q9ERS7 22-338).
T2 sequence (looked up): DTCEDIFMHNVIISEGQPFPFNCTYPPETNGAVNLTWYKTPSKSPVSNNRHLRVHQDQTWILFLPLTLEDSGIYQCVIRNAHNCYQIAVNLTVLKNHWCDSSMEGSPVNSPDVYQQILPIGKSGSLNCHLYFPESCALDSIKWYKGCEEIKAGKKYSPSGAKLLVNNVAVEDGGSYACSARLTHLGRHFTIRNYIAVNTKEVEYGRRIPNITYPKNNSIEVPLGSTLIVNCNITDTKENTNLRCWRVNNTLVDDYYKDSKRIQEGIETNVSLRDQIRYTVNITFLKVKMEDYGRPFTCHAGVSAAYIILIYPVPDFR
The test is described as above. The protocol: as §1

For test [3], the target named is T3, recombinant human IL-36R (ECD) (human, UniProt Q9HB29 20-332).
T3 construct: range 20-332; also called IL-1RL2; IL-1Rrp2
T3 sequence (looked up): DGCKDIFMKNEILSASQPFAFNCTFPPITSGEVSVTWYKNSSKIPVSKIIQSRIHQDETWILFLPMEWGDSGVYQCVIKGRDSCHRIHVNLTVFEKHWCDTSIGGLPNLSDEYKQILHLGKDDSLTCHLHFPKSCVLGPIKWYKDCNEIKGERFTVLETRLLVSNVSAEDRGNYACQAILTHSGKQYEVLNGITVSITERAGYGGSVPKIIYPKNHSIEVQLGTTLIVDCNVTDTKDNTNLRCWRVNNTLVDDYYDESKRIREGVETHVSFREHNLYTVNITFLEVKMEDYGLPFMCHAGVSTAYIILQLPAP
Put plainly: SPR (ProteOn), recombinant human IL-36R at 7 surface densities, global fit. The procedure: A) Kinetics and binding affinities of anti-IL-36R antibodies binding to recombinant human IL-36R were measured using the Proteon (Bio-Rad, Hercules, Calif.) using material generated from hybridoma following single column purification. […] The binding affinities of the mouse antibodies to human IL-36R run at 7 different surface densities (globally fit) is shown in Table 1. Binding of the chimeric anti-IL36R IgGs is equivalent to the respective mouse leads.

The target of test [4] is T3, recombinant human IL-36R (ECD). Description: SPR (ProteOn), single IL-36R surface coat concentration. The protocol: A) Kinetics and binding affinities of anti-IL-36R antibodies binding to recombinant human IL-36R were measured using the Proteon (Bio-Rad, Hercules, Calif.) using material generated from hybridoma following single column purification. […] Binding of the chimeric anti-IL36R IgGs is equivalent to the respective mouse leads.

The target in test [5] is cynomolgus IL-36R on BaF/3 cells (cynomolgus, UniProt A0A2K5WSK9 20-558). Description: cell-based or functional assay.
Test [6] deals with T4, human IL-36R on cells (human, UniProt Q9HB29 20-575).
T4 sequence (looked up): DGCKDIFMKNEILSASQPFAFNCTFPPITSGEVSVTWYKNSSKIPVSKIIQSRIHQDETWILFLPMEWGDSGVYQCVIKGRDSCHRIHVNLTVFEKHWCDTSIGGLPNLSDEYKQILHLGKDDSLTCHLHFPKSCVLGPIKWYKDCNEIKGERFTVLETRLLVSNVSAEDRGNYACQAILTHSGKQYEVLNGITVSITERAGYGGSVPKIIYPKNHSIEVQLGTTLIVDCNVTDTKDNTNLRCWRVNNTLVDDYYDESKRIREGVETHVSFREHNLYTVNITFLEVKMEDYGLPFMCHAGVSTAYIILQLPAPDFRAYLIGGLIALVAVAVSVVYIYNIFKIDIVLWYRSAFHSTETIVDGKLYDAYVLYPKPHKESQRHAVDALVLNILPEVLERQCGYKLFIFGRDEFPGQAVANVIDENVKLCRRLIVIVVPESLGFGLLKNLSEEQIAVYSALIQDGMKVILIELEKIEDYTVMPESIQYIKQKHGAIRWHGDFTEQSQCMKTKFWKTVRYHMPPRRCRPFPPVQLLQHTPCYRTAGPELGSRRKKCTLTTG
Description: cell-based or functional assay.

Test [7] concerns the target T4, human IL-36R on cells. Description: flow cytometry, HEK293 cells transfected with full-length human IL-36R. The procedure: HEK293 cells transfected with full-length human IL-36R or NCI/ADR-RES cells were passaged for 24 hours prior to staining. Cells were removed from flasks by rinsing with 10 ml of 5 mM EDTA in PBS, and then incubated at 37° C. for 10 min with an additional 10 ml of 5 mM EDTA and 2.5 ml of Accumax to declump/disperse cells. Antibodies were then diluted to specified concentrations in PBS+2% BSA, and cells incubated for 20 min at room temperature. Excess antibody was then washed by adding 200 μl of PBS and then centrifuged. Secondary reagent was then added at 50 μl per well and cells are incubated for 15 min at room temperature and then washed as above. Cells were resuspended in 200 μl PBS and analyzed by flow cytometry.

Test [8] has as its target T4, human IL-36R on cells. Description: cell-based or functional assay. The source holds these as a separate data set.

cynomolgus IL-36R on BaF/3 cells, sequence (A0A2K5WSK9 entry or part of it): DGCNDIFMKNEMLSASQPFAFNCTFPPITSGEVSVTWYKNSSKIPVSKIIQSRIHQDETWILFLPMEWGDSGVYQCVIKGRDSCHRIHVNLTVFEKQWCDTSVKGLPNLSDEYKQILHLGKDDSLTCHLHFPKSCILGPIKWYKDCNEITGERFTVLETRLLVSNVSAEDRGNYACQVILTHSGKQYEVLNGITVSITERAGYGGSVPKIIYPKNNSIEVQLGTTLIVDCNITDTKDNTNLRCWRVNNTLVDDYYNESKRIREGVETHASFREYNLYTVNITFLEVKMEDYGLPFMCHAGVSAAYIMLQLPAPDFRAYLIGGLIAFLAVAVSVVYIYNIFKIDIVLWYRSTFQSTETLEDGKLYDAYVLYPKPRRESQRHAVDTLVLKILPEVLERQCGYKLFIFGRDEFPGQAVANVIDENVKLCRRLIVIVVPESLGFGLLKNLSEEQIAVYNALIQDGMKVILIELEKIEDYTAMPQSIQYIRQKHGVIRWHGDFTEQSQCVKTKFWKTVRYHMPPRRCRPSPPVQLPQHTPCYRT

B1: antibody 81A1 (antibody, V domains shown)
VH: QVQLKESGPGLVAPSQSLFITCTVSGFSLSSYEINWVRQVPGKGLEWLGVIWTGITTNYNSALISRLSISKDNSKSLVFLKMNSLQTDDTAIYYCARGTGTGFYYAMDYWGQGTSVTVSS
VL: DIQMTQTTSSLSASLGDRVTISCRASQDIYKYLNWYQQKPDGTLKLLIYYTSGLHSGVPSRFSGSGSGTDFSLTISNLEPEDIATYFCQQDSKFPWTFGGDTKLEIK
notes: Mouse monoclonal from hybridoma; also called 81A1D1; Mouse 81A1
Broadly, the Kd is the equilibrium constant for the complex coming apart. For orientation: EC50 means the concentration giving half of the maximal effect. Turning to B1, the binding result in test [1] is “no binding (tested: 100 nM)”. The binding result in test [2] is given as “no binding (tested: 100 nM)”. For the same molecule, the Kd in test [3] was found to be 0.016 nM. In addition, the Kd in test [4] was less than 0.1 nM. For the same molecule, in test [5], the “IC90, pNFκB, BaF/3 cynomolgus IL-36R cells, trun-IL-36a” value turned out to be 0.6 nM; the “IC90, pNFκB, BaF/3 cynomolgus IL-36R cells, trun-IL-36b” value amounted to 0.9 nM; the “IC90, pNFκB, BaF/3 cynomolgus IL-36R cells, trun-IL-36g” value was found to be 1 nM. Moreover, in test [6], the “IC90, GM-CSF release, NCI/ADR-RES cells, trun-IL-36a” value turned out to be 1.2 nM; the “IC90, GM-CSF release, NCI/ADR-RES cells, trun-IL-36b” value amounted to 1.2 nM; the “IC90, GM-CSF release, NCI/ADR-RES cells, trun-IL-36g” value worked out at 0.7 nM; the “IC90, IL-6 release, NCI/ADR-RES cells, trun-IL-36a” value turned out to be 17 nM. In test [6], the “IC90, IL-6 release, NCI/ADR-RES cells, trun-IL-36b” value turned out to be 5.3 nM; the “IC90, IL-6 release, NCI/ADR-RES cells, trun-IL-36g” value came out at 0.8 nM; the “IC90, IL-8 release, NCI/ADR-RES cells, trun-IL-36a” value was 1.9 nM; the “IC90, IL-8 release, NCI/ADR-RES cells, trun-IL-36b” value is 0.5 nM. Besides, in test [6], the “IC90, IL-8 release, NCI/ADR-RES cells, trun-IL-36g” value is 0.5 nM; the “IC90, pNFκB, NCI/ADR-RES cells, trun-IL-36a” value worked out at 2.7 nM; the “IC90, pNFκB, NCI/ADR-RES cells, trun-IL-36b” value was 4.2 nM; the “IC90, pNFκB, NCI/ADR-RES cells, trun-IL-36g” value worked out at 2.2 nM. In test [7], this molecule gave a concentration giving a half-maximal response (EC50) of 0.28 nM.

B2: antibody 73C5 (antibody, V domains shown)
VH: QVQLKESGPGLVAPSQSLSITCTVSGFSLTNYAVHWVRQFPGKGLEWLGVIWSDGSTDFNAPFKSRLSINKDNSKSQVFFKMNSLQIDDTAIYYCARKGGYSGSWFAYWGQGTLVTVSA
VL: DIVMTQSQKFLSTSVGVRVSVTCKASQDVGTNVLWYQQKIGQSPKPLIYSASYRHSGVPDRFTGSGSGTDFTLIISNVQSEDLAEYFCQQYSRYPLTFGPGTKLELK
notes: Mouse monoclonal from hybridoma; also called 73C5C10; Mouse 73C5
Regarding B2, in test [8], the “IC90, IL-8 release, human primary keratinocytes (NHK), trun-IL-36a” value was determined as 20.8 nM; the “IC90, IL-8 release, human primary keratinocytes (NHK), trun-IL-36b” value was found to be 46 nM; the “IC90, IL-8 release, human primary keratinocytes (NHK), trun-IL-36g” value was 2.4 nM; the “IC90, pNFκB, human primary keratinocytes (NHK), trun-IL-36a” value is 10.7 nM. Moreover, in test [8], the “IC90, pNFκB, human primary keratinocytes (NHK), trun-IL-36b” value worked out at 14.4 nM and the “IC90, pNFκB, human primary keratinocytes (NHK), trun-IL-36g” value amounted to 1.7 nM. The binding result in test [1] is listed as “no binding (tested: 100 nM)”. Besides, the binding result in test [2] is reported as “no binding (tested: 100 nM)”. The dissociation constant (Kd) in test [3] came to 0.057 nM. Moreover, the equilibrium dissociation constant (Kd) in test [4] was less than 0.1 nM. For the same molecule, in test [5], the “IC90, pNFκB, BaF/3 cynomolgus IL-36R cells, trun-IL-36a” value came to 0.2 nM; the “IC90, pNFκB, BaF/3 cynomolgus IL-36R cells, trun-IL-36b” value stood at 1.6 nM; the “IC90, pNFκB, BaF/3 cynomolgus IL-36R cells, trun-IL-36g” value worked out at 1.5 nM. In test [6], the “IC90, GM-CSF release, NCI/ADR-RES cells, trun-IL-36a” value stood at 4.8 nM; the “IC90, GM-CSF release, NCI/ADR-RES cells, trun-IL-36b” value worked out at 1.4 nM; the “IC90, GM-CSF release, NCI/ADR-RES cells, trun-IL-36g” value is 2 nM; the “IC90, IL-6 release, NCI/ADR-RES cells, trun-IL-36a” value is 19 nM. Moreover, in test [6], the “IC90, IL-6 release, NCI/ADR-RES cells, trun-IL-36b” value came to 3.8 nM; the “IC90, IL-6 release, NCI/ADR-RES cells, trun-IL-36g” value is 1.9 nM; the “IC90, IL-8 release, NCI/ADR-RES cells, trun-IL-36a” value turned out to be 3.3 nM; the “IC90, IL-8 release, NCI/ADR-RES cells, trun-IL-36b” value amounted to 0.6 nM. Besides, in test [6], the “IC90, IL-8 release, NCI/ADR-RES cells, trun-IL-36g” value amounted to 1.4 nM; the “IC90, pNFκB, NCI/ADR-RES cells, trun-IL-36a” value worked out at 3.4 nM; the “IC90, pNFκB, NCI/ADR-RES cells, trun-IL-36b” value is 3.4 nM; the “IC90, pNFκB, NCI/ADR-RES cells, trun-IL-36g” value is 2.5 nM.

These data come from US20200231684A1 (published 2020).
